The target in assay [1] is T1, human EphA2 (ephrin receptor A2), on cells (human, UniProt P29317 24-976).
T1 construct: Used for HEK293 transfectants, A549 and other human tumor cell lines
Kind of assay: flow cytometry binding on A549 cells. How it is done:
(§1) Surface binding of the antibodies to in vitro grown cell lines was assessed by flow cytometry. Tumor cells were detached from their culture plate using Versene and counted. Cells were staining in BSA-containing buffer with primary antibody for 30 minutes at 4° C. with shaking. Following, cells were washed and stained with secondary PE-labeled antibody for 30 minutes at 4° C. with shaking. Before analysis on an Intellicyt iQue3 scanner, cells were counterstained with DAPI. MedFI values from live, single cells was expressed as fold over isotype control.
In general terms: A flow cytometer gives signals particle by particle.

Assay [2] concerns the target T1, human EphA2 (ephrin receptor A2), on …. The assay can be described thus: flow cytometry binding on A549 cells, MedFI. As for the experimental part:
as §1

For another assay, the target named is T2, hEphA2-FN12-(327-534)-Fc (human, UniProt P29317 327-534).
T2 construct: Captured by anti-human Fc on a CM5 chip; also called FN1-FN2 domains of EphA2 fused to human Fc
T2 sequence (P29317 327-534): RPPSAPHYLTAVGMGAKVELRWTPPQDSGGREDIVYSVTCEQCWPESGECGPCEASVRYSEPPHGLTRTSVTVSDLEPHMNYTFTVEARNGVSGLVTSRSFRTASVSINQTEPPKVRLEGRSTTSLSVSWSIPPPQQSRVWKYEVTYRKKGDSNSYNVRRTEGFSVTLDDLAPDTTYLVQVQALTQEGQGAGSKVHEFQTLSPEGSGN
The assay can be described thus: SPR Biacore, 25 C, EphA2-Fc captured by anti-human Fc, Fab as analyte, 1:1 Langmuir. How it is done:
(§2) The hEphA2-Fc fusions were captured with an anti-human Fc immobilized to a CM5 chip. Biacore® assays were conducted at 25° C. using HBS-EP+ buffer (0.01 M HEPES pH 7.4, 0.15 M NaCl, 3 mM EDTA, 0.005% v/v Surfactant P20). Data was double-reference subtracted and data was analyzed using 1:1 Langmuir binding model and steady-state model in Biacore Evaluation software.
(§3) Binding to hEphA2-ECD-Fc tested using 100, 300, and 900 nM analyte. Binding to all other ligands tested using 33.3, 100, and 300 nM analyte.
Background: SPR reads the build-up and loss of mass on a sensor chip optically.

For another assay, the target named is T3, hEphA2-clv385-534-Fc (human, UniProt P29317 385-534).
T3 construct: Recombinant fragment representing a cleavage form
T3 sequence (P29317 385-534): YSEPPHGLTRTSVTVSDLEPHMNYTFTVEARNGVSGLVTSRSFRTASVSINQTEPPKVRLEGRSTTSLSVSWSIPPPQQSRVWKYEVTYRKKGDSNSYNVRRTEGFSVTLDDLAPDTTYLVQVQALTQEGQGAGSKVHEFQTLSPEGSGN
The assay is described as above. As for the experimental part: as §2, §3

The target in the next assay is T4, hEphA2-clv435-534-Fc (human, UniProt P29317 435-534).
T4 construct: Recombinant fragment representing a cleavage form
T4 sequence (P29317 435-534): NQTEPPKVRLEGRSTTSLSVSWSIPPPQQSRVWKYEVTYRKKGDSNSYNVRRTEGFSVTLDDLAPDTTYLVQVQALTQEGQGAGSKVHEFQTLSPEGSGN
The assay is described as above. How it is done:
as §2, §3

A further assay addresses T5, hEphA2-clv395-534-Fc (human, UniProt P29317 395-534).
T5 construct: Recombinant fragment representing a cleavage form
The assay is described as above. As for the experimental part:
as §2, §3

Another assay has as its target T6, hEphA2-FN2-(437-534)-Fc (human, UniProt P29317 437-534).
T6 construct: Captured by anti-human Fc on a CM5 chip; also called FN2 domain of EphA2 fused to human Fc
The description is as above. As for the experimental part:
as §2, §3

The target in a further assay is T7, hEphA2-clv432-534-Fc (human, UniProt P29317 432-534).
T7 construct: Recombinant fragment representing a cleavage form
T7 sequence (P29317 432-534): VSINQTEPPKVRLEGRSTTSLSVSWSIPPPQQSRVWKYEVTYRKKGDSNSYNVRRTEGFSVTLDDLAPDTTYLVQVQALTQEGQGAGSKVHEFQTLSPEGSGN
The description is as above. How it is done:
as §2, §3

The target of assay [3] is T1, human EphA2 (ephrin receptor A2), on …. Kind of assay: flow cytometry on A549 cells, EC50 column.
For assay [4] the target is unchanged. Kind of assay: flow cytometry on A549 cells. How it is done: as §1
Assay [5] addresses T8, mouse EphA2 on mouse tumor cells (CT26, EMT6, MC38, RENCA) (mouse, UniProt Q03145 26-977).
T8 construct: whole, on cells
Kind of assay: flow cytometry, surface binding on CT26 cells (in vitro). How it is done:
as §1

Assay [6] deals with EphA4 (homologous receptor, screening at Integral Molecular) (UniProt P54764 20-986, limits assumed). Kind of assay: screening at Integral Molecular.
EphA4 (homologous receptor, screening at Integral Molecular), sequence (P54764 20-986 limits assumed): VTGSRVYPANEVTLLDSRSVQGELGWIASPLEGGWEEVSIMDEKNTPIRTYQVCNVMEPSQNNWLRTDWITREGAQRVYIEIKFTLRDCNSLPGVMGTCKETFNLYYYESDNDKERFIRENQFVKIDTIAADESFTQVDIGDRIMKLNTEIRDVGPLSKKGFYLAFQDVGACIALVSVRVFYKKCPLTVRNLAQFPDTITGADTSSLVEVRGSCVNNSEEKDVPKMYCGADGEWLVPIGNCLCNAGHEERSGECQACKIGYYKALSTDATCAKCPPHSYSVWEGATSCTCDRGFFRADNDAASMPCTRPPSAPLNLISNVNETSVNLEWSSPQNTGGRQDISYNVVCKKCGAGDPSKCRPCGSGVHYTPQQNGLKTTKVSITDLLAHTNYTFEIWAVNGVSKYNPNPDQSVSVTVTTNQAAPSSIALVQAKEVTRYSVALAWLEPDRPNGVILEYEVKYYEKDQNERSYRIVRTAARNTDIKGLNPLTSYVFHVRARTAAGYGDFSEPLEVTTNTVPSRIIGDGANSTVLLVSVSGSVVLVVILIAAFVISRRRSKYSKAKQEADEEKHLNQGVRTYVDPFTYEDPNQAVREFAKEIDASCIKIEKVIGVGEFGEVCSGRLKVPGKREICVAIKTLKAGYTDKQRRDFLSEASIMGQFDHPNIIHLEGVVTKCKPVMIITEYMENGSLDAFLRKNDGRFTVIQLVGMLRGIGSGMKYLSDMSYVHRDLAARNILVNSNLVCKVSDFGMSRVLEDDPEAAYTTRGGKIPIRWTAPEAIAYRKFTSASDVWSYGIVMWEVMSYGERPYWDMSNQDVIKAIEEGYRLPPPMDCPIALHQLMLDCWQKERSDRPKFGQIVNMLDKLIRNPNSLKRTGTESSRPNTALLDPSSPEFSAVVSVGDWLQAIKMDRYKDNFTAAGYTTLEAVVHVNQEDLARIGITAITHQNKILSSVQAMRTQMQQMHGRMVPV
The target in another assay is T9, FcGR1 (human, UniProt P12314 16-374).
T9 construct: whole, on cells; An Fc receptor
T9 sequence (P12314 16-374): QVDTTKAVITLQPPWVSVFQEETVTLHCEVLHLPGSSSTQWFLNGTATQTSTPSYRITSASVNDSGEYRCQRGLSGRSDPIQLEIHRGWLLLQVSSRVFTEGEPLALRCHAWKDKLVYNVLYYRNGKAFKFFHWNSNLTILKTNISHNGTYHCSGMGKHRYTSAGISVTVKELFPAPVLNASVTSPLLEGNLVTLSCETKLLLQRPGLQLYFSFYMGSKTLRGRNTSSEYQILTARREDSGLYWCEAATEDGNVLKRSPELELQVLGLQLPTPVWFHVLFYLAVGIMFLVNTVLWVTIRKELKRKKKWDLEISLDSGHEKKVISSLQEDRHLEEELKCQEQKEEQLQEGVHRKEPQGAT
Kind of assay: flow cytometry, 6,000 human membrane proteins expressed on the surface of HEK293 cells.

Assay [7] deals with T10, EphA4_ECD (aa 23-546), full ECD, displayed on yeast (human, UniProt P54764 23-546).
T10 construct: also called EphA4 full ECD; not shown: Aga2 fusion partner followed by an internal HA tag; C-terminal Myc tag
T10 sequence (P54764 23-546): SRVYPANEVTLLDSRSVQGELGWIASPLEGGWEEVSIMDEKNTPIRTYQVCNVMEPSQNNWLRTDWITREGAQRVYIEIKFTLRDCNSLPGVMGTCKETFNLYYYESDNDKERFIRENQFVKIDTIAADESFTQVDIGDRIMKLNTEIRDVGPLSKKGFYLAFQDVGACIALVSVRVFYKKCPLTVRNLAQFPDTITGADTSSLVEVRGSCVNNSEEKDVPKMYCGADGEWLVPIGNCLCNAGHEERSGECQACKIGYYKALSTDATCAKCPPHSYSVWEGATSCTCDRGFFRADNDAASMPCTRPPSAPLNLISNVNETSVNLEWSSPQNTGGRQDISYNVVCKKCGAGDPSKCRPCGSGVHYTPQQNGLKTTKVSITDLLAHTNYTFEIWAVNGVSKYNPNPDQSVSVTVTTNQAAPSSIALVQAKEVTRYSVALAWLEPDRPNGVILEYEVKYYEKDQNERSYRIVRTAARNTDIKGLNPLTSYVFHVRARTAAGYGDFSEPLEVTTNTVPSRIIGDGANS
The assay can be described thus: yeast surface display, flow cytometry titration of AB-008873. How it is done:
Yeast cells were cultured in SDCAA (Teknova, S0543) and induced with SGCAA (Teknova, 50542). Cells were stained with pairs of primary and secondary antibodies. […] Chicken IgY anti-cMyc (Life technologies A21281) and Goat anti Chicken IgY FITC (Life technologies A11039) were used to assess expression levels. The analysis was run on the iQue3 flow cytometer. […] The FN2 domain of EphA2 alone is sufficient to mediate binding and expresses at high levels. […] FIG. 6. […] FN2 domain alone also has high relative expression. […] Swapping the FN1 domain from EphA4 into EphA2 enables binding of the epitope (diamond). Binding is lost when the FN2 domain from EphA4 is swapped into EphA2.

This note sets out measurements from US20250051464A1 (IMMUNOME, published 2025).

T1 sequence (P29317 24-976 limits assumed): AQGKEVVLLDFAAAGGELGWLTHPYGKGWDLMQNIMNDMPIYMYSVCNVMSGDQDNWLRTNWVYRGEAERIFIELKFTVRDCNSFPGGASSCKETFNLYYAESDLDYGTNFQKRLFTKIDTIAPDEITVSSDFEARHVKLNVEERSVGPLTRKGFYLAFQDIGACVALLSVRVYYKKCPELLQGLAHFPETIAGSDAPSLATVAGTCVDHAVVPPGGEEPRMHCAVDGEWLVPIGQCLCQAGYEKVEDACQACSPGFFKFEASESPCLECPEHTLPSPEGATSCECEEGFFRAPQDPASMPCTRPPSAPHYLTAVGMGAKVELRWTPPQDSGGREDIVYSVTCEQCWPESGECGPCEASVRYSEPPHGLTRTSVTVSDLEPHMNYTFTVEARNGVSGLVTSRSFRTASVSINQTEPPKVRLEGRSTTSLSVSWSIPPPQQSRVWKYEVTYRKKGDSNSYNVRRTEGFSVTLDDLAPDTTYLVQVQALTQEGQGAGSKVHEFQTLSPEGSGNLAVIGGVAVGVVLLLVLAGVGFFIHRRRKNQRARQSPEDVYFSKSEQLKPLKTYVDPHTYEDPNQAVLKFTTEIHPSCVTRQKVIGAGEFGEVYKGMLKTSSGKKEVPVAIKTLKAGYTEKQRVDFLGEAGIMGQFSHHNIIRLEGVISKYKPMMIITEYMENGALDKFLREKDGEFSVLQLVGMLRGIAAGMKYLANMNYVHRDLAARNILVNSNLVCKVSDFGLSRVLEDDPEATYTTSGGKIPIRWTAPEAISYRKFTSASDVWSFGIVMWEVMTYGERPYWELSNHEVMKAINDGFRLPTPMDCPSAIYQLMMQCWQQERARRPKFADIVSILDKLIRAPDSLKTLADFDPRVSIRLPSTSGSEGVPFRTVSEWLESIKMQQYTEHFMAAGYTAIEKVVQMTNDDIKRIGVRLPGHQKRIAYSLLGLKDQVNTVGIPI
T5 sequence (P29317 395-534): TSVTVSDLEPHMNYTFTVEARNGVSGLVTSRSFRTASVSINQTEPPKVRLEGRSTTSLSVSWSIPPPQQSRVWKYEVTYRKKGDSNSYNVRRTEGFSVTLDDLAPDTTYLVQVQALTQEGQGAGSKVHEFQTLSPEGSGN
T6 sequence (P29317 437-534): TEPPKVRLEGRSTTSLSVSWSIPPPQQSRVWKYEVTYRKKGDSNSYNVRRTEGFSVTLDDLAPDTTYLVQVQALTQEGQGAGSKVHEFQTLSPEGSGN
T8 sequence (Q03145 26-977): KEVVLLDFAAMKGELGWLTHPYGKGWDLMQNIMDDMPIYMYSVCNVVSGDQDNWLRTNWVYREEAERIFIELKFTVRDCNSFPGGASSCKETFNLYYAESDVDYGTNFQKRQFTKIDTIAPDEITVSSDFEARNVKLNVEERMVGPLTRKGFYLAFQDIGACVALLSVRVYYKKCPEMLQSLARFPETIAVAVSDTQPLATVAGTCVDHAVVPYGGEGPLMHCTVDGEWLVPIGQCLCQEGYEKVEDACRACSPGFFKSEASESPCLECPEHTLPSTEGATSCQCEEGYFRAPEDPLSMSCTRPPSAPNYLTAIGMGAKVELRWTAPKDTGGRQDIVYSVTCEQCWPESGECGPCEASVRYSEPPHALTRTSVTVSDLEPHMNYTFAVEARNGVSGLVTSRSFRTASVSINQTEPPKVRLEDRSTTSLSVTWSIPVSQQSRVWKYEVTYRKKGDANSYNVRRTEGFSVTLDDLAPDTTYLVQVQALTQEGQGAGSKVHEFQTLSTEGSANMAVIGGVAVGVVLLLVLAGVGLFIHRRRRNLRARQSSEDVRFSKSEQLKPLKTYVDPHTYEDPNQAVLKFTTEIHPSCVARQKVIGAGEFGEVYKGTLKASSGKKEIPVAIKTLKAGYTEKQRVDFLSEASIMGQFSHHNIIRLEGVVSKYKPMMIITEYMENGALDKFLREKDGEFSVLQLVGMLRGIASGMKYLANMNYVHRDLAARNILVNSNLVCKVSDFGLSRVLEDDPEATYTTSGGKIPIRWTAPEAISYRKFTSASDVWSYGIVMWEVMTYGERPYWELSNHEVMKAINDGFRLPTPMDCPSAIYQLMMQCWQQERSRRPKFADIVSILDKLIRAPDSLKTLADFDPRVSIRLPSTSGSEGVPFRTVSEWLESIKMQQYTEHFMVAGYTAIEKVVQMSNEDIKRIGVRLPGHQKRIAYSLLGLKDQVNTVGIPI

B1: AB-009806 (antibody, mouse IgG2a, V domains shown)
VH: QVQLQQWGAGLLKPSETLSLTCAVYGGSFSDYYWSWIRQPPGKGLEWIGEINHSGSTNYNPSLKSRVTISVDPSKNQFSLKLTSVTAADTAVYYCAKPFRPHCTNGVCYSGDAFDIWGQGTMVTVSS
VL: SYVLTQPPSVSVAPGQTARITCGGNNIGTKNVHWYQQKPGQAPVLVVYDDSDRPSGIPEQFSGSNSGNTATLTISRVEAGDEADYYCQVWDSSSDHLVFGGGTKLTVL
Regarding B1, the “Flow Delta activity (MedFI)” value in assay [1] was found to be 231000 MedFI. Further, the “EC50 (read off the curve)” value in [2] was ~20 nM.

B2: AB-010699 human Fab fragment (Fab, V domains shown)
VH: QVQLQQWGAGLLKPSETLSLTCAVYGGSFSGYYWSWIRQPPGKGLEWIGEINHRGSINYNNYNPSLKSRVTISVDTSKNQFSLKLSSVTAADTAVYYCAKPLRPHCINGVCYSGDAFDIWGQGTMVTVAS
VL: SYVLTQPPSVSVAPGQTARITCGGNNIGYKNVHWYQQKPGQAPVLVVYDDSDRPSGIPERFSGSNSGNTATLTISRVEAGDEADYYCQVWDHSSDHVVFGGGTKLTVL
notes: Human Fab fragment
Turning to B2, the dissociation constant (Kd) with hEphA2-FN12-(327-534)-Fc amounted to 8.6 nM; in the assay with hEphA2-clv385-534-Fc, 12 nM; with hEphA2-clv435-534-Fc, 9.3 nM; in the assay with hEphA2-clv395-534-Fc, 12 nM; with hEphA2-FN2-(437-534)-Fc, 8.6 nM; with hEphA2-clv432-534-Fc, 9.6 nM. For the same molecule, the koff is 0.043 s⁻¹ with hEphA2-FN12-(327-534)-Fc; 0.072 s⁻¹ in the assay with hEphA2-clv385-534-Fc; 0.078 s⁻¹ in the assay with hEphA2-clv435-534-Fc; 0.07 s⁻¹ in the assay with hEphA2-clv395-534-Fc; 0.085 s⁻¹ with hEphA2-FN2-(437-534)-Fc; 0.075 s⁻¹ in the assay with hEphA2-clv432-534-Fc. Besides, the kon in the assay with hEphA2-FN12-(327-534)-Fc came out at 5e+06 M⁻¹ s⁻¹; with hEphA2-clv385-534-Fc it was 6.05e+06 M⁻¹ s⁻¹; with hEphA2-clv435-534-Fc it was 8.42e+06 M⁻¹ s⁻¹; with hEphA2-clv395-534-Fc, 5.72e+06 M⁻¹ s⁻¹; in the assay with hEphA2-FN2-(437-534)-Fc it was 1e+07 M⁻¹ s⁻¹; with hEphA2-clv432-534-Fc it was 7.78e+06 M⁻¹ s⁻¹.

B3: AB-009817 (antibody, mouse IgG2a, V domains shown)
VH: QVQLQQWGAGLLKPSETLSLTCAVYGGSFSDYYWSWIRQPPGKGLEWIGEVNHRGSINYNNYNPSLKSRVTISVDPSKNQFSLKLTSVTAADTAVYYCAKPLRPHCTNAVCYSGDAFDIWGQGTMVTVAS
VL: SYVLTQPPSVSVAPGQTARITCGGNNIGSKNVHWYQQKPGQAPVLVVYDDSDRPSGIPEQFSGSNSGNTATLTISRVEAGDEADYYCQVWDSSSDHLVFGGGTKLTVL
For the molecule B3, the binding result in [3] is “no binding”. Also, the “Delta (flow)” value in assay [4] worked out at 0.

B4: AB-008873 (mouse IgG2a format) (antibody)
heavy: QVQLQQWGAGLLKPSETLSLTCAVYGGSFSDYYWSWIRQPPGKGLEWIGEVNHRGSINYNNYNPSLKSRVTISVDPSKNQFSLKLTSVTAADTAVYYCAKPLRPHCTNGVCYSGDAFDIWGQGTMVTVASAKTTAPSVYPLAPVCGDTTGSSVTLGCLVKGYFPEPVTLTWNSGSLSSGVHTFPAVLQSDLYTLSSSVTVTSSTWPSQSITCNVAHPASSTKVDKKIEPRGPTIKPCPPCKCPAPNLLGGPSVFIFPPKIKDVLMISLSPIVTCVVVDVSEDDPDVQISWFVNNVEVHTAQTQTHREDYNSTLRVVSALPIQHQDWMSGKEFKCKVNNKDLPAPIERTISKPKGSVRAPQVYVLPPPEEEMTKKQVTLTCMVTDFMPEDIYVEWTNNGKTELNYKNTEPVLDSDGSYFMYSKLRVEKKNWVERNSYSCSVVHEGLHNHHTTKSFSRTPG
light: SYVLTQPPSVSVAPGQTARITCGGNNIGSKNVHWYQQKPGQAPVLVVYDDSDRPSGIPEQFSGSNSGNTATLTISRVEAGDEADYYCQVWDSSSDHLVFGGGTKLTVLGQPKSSPSVTLFPPSSEELETNKATLVCTITDFYPGVVTVDWKVDGTPVTQGMETTQPSKQSNNKYMASSYLTLTARAWERHSSYSCQVTHEGHTVEKSLSRADCS
Consider B4, for which the “fold over isotype control (MedFI)” value in [5] was 16 fold. The binding result is “no binding” in [6], “binds” with FcGR1 and “no binding (tested: about 300 nM)” in assay [7].

What is called EC50 (read off the curve) is the midpoint of the concentration-response curve. Read a high EC50 (read off the curve) as lower potency in that assay. The term Kd denotes the equilibrium constant for the complex coming apart. A low value points to higher affinity. The term koff denotes a measure of how fast the partners let go of each other. A high value points to a short-lived complex. The term kon denotes the rate constant with which the complex forms. High values mean fast association, low ones slow association.
